Laboratory results published in publication PMC10515186.

Columns and labels:
[1] = target: SARS-CoV-2 spike protein (Hexapro S) (SARS-CoV-2); test: other fluorescence titration
[2] = target: SARS-CoV-2 spike protein (Hexapro S) (SARS-CoV-2); test: dynamic light scattering
[3] = target: SARS-CoV-2 spike protein (Hexapro S) (SARS-CoV-2)

Substance	half-saturation point [1] [nM]	lowest lectin concentration with a significant increase in hydrodynamic radius [2] [nM]	EC50, plaque reduction assay, SARS-CoV-2 Munich isolate in Vero E6 cells [3] [nM]
SeTau-405 fluorescently labeled BOA (natural protein)	30 to 60	–	–
Oscillatoria agardhii agglutinin (OAA) (natural protein)	–	125	–
Burkholderia oklahomensis agglutinin (BOA) (natural protein)	–	60	9
